In one data set the target is T1, LEAI.480.
T1 chain: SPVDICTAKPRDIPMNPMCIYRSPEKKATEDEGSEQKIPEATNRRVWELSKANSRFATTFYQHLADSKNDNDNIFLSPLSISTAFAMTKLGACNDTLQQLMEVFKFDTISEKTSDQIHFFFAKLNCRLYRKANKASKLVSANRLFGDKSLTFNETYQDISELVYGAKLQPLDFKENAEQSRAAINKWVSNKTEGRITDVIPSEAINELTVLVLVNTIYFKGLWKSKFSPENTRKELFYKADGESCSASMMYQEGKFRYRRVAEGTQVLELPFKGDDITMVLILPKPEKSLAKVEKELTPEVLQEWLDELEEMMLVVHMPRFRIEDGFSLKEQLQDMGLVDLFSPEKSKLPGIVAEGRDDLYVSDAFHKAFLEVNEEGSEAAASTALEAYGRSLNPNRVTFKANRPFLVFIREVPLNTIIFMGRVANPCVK

A further data set addresses T2, LEAI.472.
T2 chain: T1 chain with Y389N

Another data set concerns the target T3, LEAI.482.
T3 chain: T1 chain with Y389H

The next data set deals with T4, LEAI.474.
T4 chain: T1 chain with Y389Q

Data set [1] deals with plasma-derived ATIII, P01008.

Substitutions are numbered along the chain they refer to. Some results are limits rather than exact numbers.

B1: human neutrophil cathepsin G (protein)
chain: IIGGRESRPHSRPYMAYLQIQSPAGQSRCGGFLVREDFVLTAAHCWGSNINVTLGAHNIQRRENTQQHITARRAIRHPQYNQRTIQNDIMLLQLSRRVRRNRNVNPVALPRAQEGLRPGTLCTVAGWGRVSMRRGTDTLREVQLRVQRDRQCLRIFGSYDPRRQICVGDRRERKAAFKGDSGGPLLCNNVAHGIVSYGKSSGVPPEVFTRVSSFLPWIRTTMRS
For the protein B1, the Substrate: halflife, min, CatG in the data set with LEAI.480 was 35.8 min; in the data set with LEAI.472, 333 min; with LEAI.482, greater than 240 min; in the data set with LEAI.474, greater than 300 min.

B2: human neutrophil elastase (protein)
chain: IVGGRRARPHAWPFMVSLQLRGGHFCGATLIAPNFVMSAAHCVANVNVRAVRVVLGAHNLSRREPTRQVFAVQRIFENGYDPVNLLNDIVILQLNGSATINANVQVAQLPAQGRRLGNGVQCLAMGWGLLGRNRGIASVLQELNVTVVTSLCRRSNVCTLVRGRQAGVCFGDSGSPLVCNGLIHGIASFVRGGCASGLYPDAFAPVAQFVNWIDSIIQ
As for B2, the Substrate: halflife, min, HNE with LEAI.480 stood at 19.9 min; with LEAI.472, 30.1 min; with LEAI.482, 25.3 min; with LEAI.474, 38.4 min; in data set [1] it was 2.9 min. For the same protein, the “halflife HNE/hep as a percentage of plasma ATIII value” with LEAI.480 came out at 686%; with LEAI.472 it was 1038%; with LEAI.482, 872%; with LEAI.474 it was 1324%.

The record behind these values is patent US20060259987.
